# Results as given in paper PMC2854606.
# Biological target: T1, endogenous MGR (Mus musculus (C2C12 myoblasts)) (UniProt D2EAC2)
# T1 sequence: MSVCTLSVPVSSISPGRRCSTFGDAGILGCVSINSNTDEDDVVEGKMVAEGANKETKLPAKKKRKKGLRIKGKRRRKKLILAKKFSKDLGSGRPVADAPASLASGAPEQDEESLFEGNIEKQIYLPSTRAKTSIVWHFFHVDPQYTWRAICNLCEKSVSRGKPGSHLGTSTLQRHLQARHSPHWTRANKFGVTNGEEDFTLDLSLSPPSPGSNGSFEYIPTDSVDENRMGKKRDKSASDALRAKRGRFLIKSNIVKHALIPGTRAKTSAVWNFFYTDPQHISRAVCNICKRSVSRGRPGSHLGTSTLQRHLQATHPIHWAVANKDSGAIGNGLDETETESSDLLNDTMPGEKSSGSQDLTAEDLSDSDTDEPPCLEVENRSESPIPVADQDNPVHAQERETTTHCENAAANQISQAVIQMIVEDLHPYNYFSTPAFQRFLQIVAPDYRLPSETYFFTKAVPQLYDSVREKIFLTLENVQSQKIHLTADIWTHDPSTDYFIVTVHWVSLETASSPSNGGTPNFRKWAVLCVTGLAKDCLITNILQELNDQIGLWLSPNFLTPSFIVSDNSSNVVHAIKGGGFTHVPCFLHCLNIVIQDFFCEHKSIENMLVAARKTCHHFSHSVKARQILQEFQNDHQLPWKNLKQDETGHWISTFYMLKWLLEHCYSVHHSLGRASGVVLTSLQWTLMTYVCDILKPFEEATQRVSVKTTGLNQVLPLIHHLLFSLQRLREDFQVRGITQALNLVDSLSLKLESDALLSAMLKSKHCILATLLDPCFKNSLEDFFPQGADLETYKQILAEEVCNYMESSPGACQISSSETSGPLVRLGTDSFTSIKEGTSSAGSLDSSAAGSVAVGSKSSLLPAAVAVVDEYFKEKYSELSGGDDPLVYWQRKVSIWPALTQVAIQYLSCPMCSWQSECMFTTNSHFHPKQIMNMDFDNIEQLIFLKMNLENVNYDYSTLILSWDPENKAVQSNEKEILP
# Assay: pull-down, SILAC MS
sequence,measurement,value
TTCAAAACTGCAGGATCCTTCGCCTAGGCTCGCAGCGCGGGAGCGA / AATCGCTCCCGCGCTGCGAGCCTAGGCGAAGGATCCTGCAGTTTTG [porcine IGF2 q (pulldown)],binding signal (SILAC ratio q/Q),5.5
